Source: patent publication US20030125257

Target: 19 peptidomimetic BACE inhibitors

B1: purified full-length human BACE with six C-terminal His residues, expressed in Sf9 insect cells (protein)
chain: ETDEEPEEPGRRGSFVEMVDNLRGKSGQGYYVEMTVGSPPQTLNILVDTGSSNFAVGAAPHPFLHRYYQRQLSSTYRDLRKGVYVPYTQGKWEGELGTDLVSIPHGPNVTVRANIAAITESDKFFINGSNWEGILGLAYAEIARPDDSLEPFFDSLVKQTHVPNLFSLQLCGAGFPLNQSEVLASVGGSMIIGGIDHSLYTGSLWYTPIRREWYYEVIIVRVEINGQDLKMDCKEYNYDKSIVDSGTTNLRLPKKVFEAAVKSIKAASSTEKFPDGFWLGEQLVCWQAGTTPWNIFPVISLYLMGEVTNQSFRITILPQQYLRPVEDVATSQDDCYKFAISQSSTGTVMGAVIMEGFYVVFDRARKRIGFAVSACHVHDEFRTAAVEGPFVTLDMEDCGYNIPQTDESTLMTIAYVMAAICALFMLPLCLMVCQWRCLRCLRQQHDDFADDISLLKHHHHHH
- FRET assay (proteolytic activity of beta-secretase): test compounds inhibiting the binding of a tagged beta-secretase to beta-secretase also inhibit the proteolytic activity of beta-secretase leading to production of A-beta over a broad range of IC-50 values
